Reference: paper PMC5100913 (PLoS ONE, 2016)

Target: T1, Aha1 (yeast, UniProt Q12449 1-350)
T1 sequence (looked up): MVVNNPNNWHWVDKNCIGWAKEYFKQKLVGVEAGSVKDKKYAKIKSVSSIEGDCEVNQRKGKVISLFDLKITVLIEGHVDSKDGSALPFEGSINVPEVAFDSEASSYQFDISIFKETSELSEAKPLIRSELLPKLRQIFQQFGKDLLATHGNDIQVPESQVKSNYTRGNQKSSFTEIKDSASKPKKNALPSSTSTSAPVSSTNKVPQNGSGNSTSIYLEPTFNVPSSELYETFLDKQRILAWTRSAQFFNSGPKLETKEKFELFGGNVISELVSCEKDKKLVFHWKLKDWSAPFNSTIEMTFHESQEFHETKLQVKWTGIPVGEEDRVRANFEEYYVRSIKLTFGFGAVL
Test: cell-based or functional assay

stimulation of the chaperone's ATPase activity by Aha1 (NADH coupled enzymatic assay, hsp90:Aha1 1:2): 10 fold
B1: yeast Hsp90 (natural protein)
chain: not shown
